# Assay: yeast display, Sf9 membrane polyspecificity reagent, FACS + sequencing; frameworks hold sequencing errors
# Method in brief: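 Nanobodies from a synthetic yeast display library (Saccharomyces cerevisiae BJ5465), induced 36–48 hours with galactose, were stained 1 hour at 4 °C with 10% biotinylated, detergent-solubilized Sf9 membrane reagent, enriched on streptavidin microbeads, then FACS-sorted. Anti-HA (expression) and streptavidin (reagent binding) fluorescence set low and high (top ~1%) gates. Polyreactivity labels come from the gate of origin. Genes were colony-PCR amplified, MiSeq 2 × 250 sequenced and filtered by CDR length.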
row,Sequence,polyreactivity (PSR sort gate)
1,QVQLVESGGGLVQAGGSLRLSCAASGFIFLYYAMGWYRQAPGKERELVPYISRGADTKYADSVKGRFTISRDNAKNTVYLQMNSLKPEDTAVYYCATDITTFWFPYPGVELGYWGQGTQVTVAS,low polyreactivity
2,QVQLVESGGGLVQAGGSLRLSCAASGFIFNDYAMGWYRQAPGKERELVAAISRSGGSTYYADSVKGRFTISRDNAKNTVYLQMNSLKAEDTAVYYCAADGLSGYRYYYWGQGTQVTVSS,high polyreactivity
3,QVQLVESGGGLVQAGGSLRLSCAASGFIFNLYAMGWYRQAPGKERELVAAISSGGGTSYADSVKGRFTISRDNAKNTDYLQMNSLKPEDTAVYYCAKRSGTYPFNFRFDYWGQGTQVTVSS,high polyreactivity
4,QVQLVESGGGLVQAGGSLRLSCAASGFIFNYYVMGGYRQAPGKERELVATISWRGGRTYYADSVKGRFTISRDNAKNTVYLQMNSLKPEDTAVYYCAADSFYYRPEYDYWGQGTQVTVSS,low polyreactivity
5,QVQLVESGGGLVQAGGSLRLSCAASGFIFPANAMGWSRQAPGKEREFVAAISRSGGTTYYADSVKGRFTISRDHAKNTVYLQMNSLKPEDTAVYYCAARYAIGPGYDYWGQGTQVTVSS,high polyreactivity
6,QVQLVESGGGLVQAGGSLRLSCAASGFIFPAYVMGWYRQAPGKERELVAAISRRGGSTYYADSVKGRFTISRDNAKNTVYLQMNRLKPEDTSVYYCAAVFKAGSAYDYWGQGTQVTVSS,high polyreactivity
7,QVQLVESGGGLVQAGGSLRLSCAASGFIFPGYAMGWYRQAPGKERELVAAITRSGGSTYYADSVKGRFTISRDNAKNTVYLQMNSLKPEDTAVYYCAAYVSGYRWGYDYWGQGTQVTVSS,high polyreactivity
8,QVQLVESGGGLVQAGGSLRLSCAASGFIFPGYTMGWYRQAPGKERELVAAISRGSSTYYADSVKRRFTISRDNAKNSVYLQMNSLKPEDTAVYYCAADYSYIYGFDYWGQGTQVTVSS,low polyreactivity
9,QVQLVESGGGLVQAGGSLRLSCAASGFIFPHNTMGWYRQAPGKERELVAAISSGGSTNYADSVKGRFTISRDNAKNTVYLQMNSLKPEDTAVYYCNKRVRYHSGFGYWGQGTQVTVSS,low polyreactivity
10,QVQLVESGGGLVQAGGSLRLSCAASGFIFPLYAMGWYRQAPGKERELVAAITWRGDTTSYADSVKGRFTISRDNAKNTVYLQKNSLKPEDTAVDYCAAVRYPSGYDYWGQGTQVTVSS,high polyreactivity
11,QVQLVESGGGLVQAGGSLRLSCAASGFIFPLYAMGWYRQAPGKERELVAAITWRGDTTSYADSVKGRFTISRDNAKNTVYLQMNSLKPEDTAVYYCAAVRYPSGYDYWGQGTQVTVSS,high polyreactivity
12,QVQLVESGGGLVQAGGSLRLSCAASGFIFPPYAMGWYRQAPGKERELVAAIRISGGSTYYADSVKGRFTISRDNAKNTVYLQMNSLKPEDTAVYYCAARYVSSTPAYAYYYWGQGTQVTVSS,high polyreactivity
13,QVQLVESGGGLVQAGGSLRLSCAASGFIFPWYAMGWYRQAPGKERELVAAISESGGGTYYADSVKGRFTISRDYAKNTVYLQMNSLKPEDTAVYYCNKAPRYPYGGYDYWGQGTQVTVSS,low polyreactivity
14,QVQLVESGGGLVQAGGSLRLSCAASGFIFPWYAMGWYRQAPGKERELVAIISWDTGSTYYADSVKGRFTISRDNAKNTVYLQMNSLKPEDTAVYYCAAQQPYAGLYYWGQGTQVTVSS,low polyreactivity
15,QVQLVESGGGLVQAGGSLRLSCAASGFIFPYDAMGWYSQAPGNERELVAAITSSGGRTYYADSVQGRFTISRDNAKNTVYFQMNSLKPEDTAVYYCAARGAPPAYGYWGQGTQVTVSS,high polyreactivity
16,QVQLVESGGGLVQAGGSLRLSCAASGFIFPYNEMGWYRPAPGKERELGAAITSGSNTYYADSVKGRFTISRDNAKNTVYLQLNSLKPEDTAFYYCAARRRIYRSMGYWGQGSQVTVSS,low polyreactivity
17,QVQLVESGGGLVQAGGSLRLSCAASGFIFPYNTMGWYRQAPGTERELVAAIDSGGSTNYADSVKGRFTISRDNAKNTVDLQMNSLKPEDTAVYYCAADDPGSWWVGLLLTGVDDDYWGQGTQVTVSS,low polyreactivity
18,QVQLVESGGGLVQAGGSLRLSCAASGFIFPYYARGWYRQAPGKERELVAGITGADSTYYADSVKGRFTISRDNAKNTVYLQMNSLKPEDTAVYYCARKRYSLSRTYNYGYWGQGTQVTVSS,high polyreactivity
19,QVQLVESGGGLVQAGGSLRLSCAASGFIFQANAMGWYRQAPGKETELDAAIDDGDTTYADSVKGRFTISRDNAKNTVYLQMNSLKPEDTAGYYCATRRNRSYDYWGQGTQVTVSS,low polyreactivity
20,QVQLVESGGGLVQAGGSLRLSCAASGFIFQANPMGWYRPAPGKERELVAAIDDGDSTYADSVKGRFTISRDNAKNTVYLQMNSLKPEDTAVYYCATRRKRSYDYWGHGTQVTVSS,low polyreactivity
21,QVQLVESGGGLVQAGGSLRLSCAASGFIFQDYALGWYRQAPGKERELVAAISRSTGSTYYADSVKGRFTISRDNPKNTVYLQMNSLKPEDTAVYYCAKPRSWGYNWGQGTQVTVSS,high polyreactivity
22,QVQLVESGGGLVQAGGSLRLSCAASGFIFQKYAMGWYRQAPGKERELVAAIRYDGGSTYYADSVKGRFTISRDNAKNTVYLQMNSLKPDDTAVYYCAAYGPRLLIYPPYRYNYWGQGTQVTVSS,high polyreactivity

row,Sequence,polyreactivity (PSR sort gate)
1,QVQLVESGGGLVQAGGSLRLSCAASGFIFQKYAMGWYRQAPGKERELVAAIRYDGGSTYYADSVKGRFTISRDNAKNTVYLQMNSLKPEDTAVYYCAAYGPRFLIYPPYRYNYWGQGTQVTVSS,high polyreactivity
2,QVQLVESGGGLVQAGGSLRLSCAASGFIFQPNAMGWYRQAPGKERELVAVITWSGGSTYYADSVKGRFTISRDNAKNTVYLQMNSLKPEDTAVYYCAVDGAYDQKPTDLKGYYYWGQGTQVTVSS,low polyreactivity
3,QVQLVESGGGLVQAGGSLRLSCAASGFIFQPYAMGWYRQAPRKERELVAAITSRGGRTYYADSVKGRFTISRDNAKNTVYLQMNSLKPEDTAVYYCNGDIYASEYYYWGQGTQVTVSS,low polyreactivity
4,QVQLVESGGGLVQAGGSLRLSCAASGFIFQRYAMGCYRQAPGKERELVAAISKGGGNTYYADSVKGRFTISRDNAKKTVYLQMNSLKPEDTAVYYCNAVPRPDHDYWGQGTQVTVSS,high polyreactivity
5,QVQLVESGGGLVQAGGSLRLSCAASGFIFQRYAMGWYRQAPGKERELVAAITKSGGSTYYADSVKGRYTISRDNAKNTVYLQMNSLKPEDTAVYYCNAYRYGSYRPHQEDYDYWGQGTQVTVSS,high polyreactivity
6,QVQLVESGGGLVQAGGSLRLSCAASGFIFQTNVMGWYRQAPGKERELVAAISSGDSTYYADSVKGRFTISRDNAKNTVYLQMNSLKPEDTAVYYCAADVLGTTTTVGGFNYWGQGTQVTVSS,low polyreactivity
7,QVQLVESGGGLVQAGGSLRLSCAASGFIFQYFAMGWYRQAPGKERELVAGITSGVRPYYADSLKGRFTISRDNAKNTVYLQMNSLKPEDTAVYYCARLDSAAEPRQYDYWGQGTQVTVSS,high polyreactivity
8,QVQLVESGGGLVQAGGSLRLSCAASGFIFQYYAMGWYRQAPGKERELVAAIRISGGSTYYADSVKGRFTSSRDNAKNTVYLQMNSLKPEDTAVYYCAARQIITKFYTSNGVSSYYWGQGTQVTVSS,high polyreactivity
9,QVQLVESGGGLVQAGGSLRLSCAASGFIFRAYTMGWYRQAPGKERELVAGITSGGSTYYADSVKGRFTISRDNAKNTVYLQMNSLKPDDTAVYYCATYYRRWTPIPYEYWGQGTQVTVSS,high polyreactivity
10,QVQLVESGGGLVQAGGSLRLSCAASGFIFRDNAKGWYRQAPGKERELVAAISSGGTTKYADSVKGRFTISRDNAKNTVYLQMNSLKPEDTAVYYCAKGYAARIWRIYSRLYYWGQGTQVTVSS,high polyreactivity
11,QVQLVESGGGLVQAGGSLRLSCAASGFIFRDNAMGWYRQAPGKERELVAAISKSGGRTYYADSVKGRFTISRDNAKNTVYLQMNSLKPEDTAVYYCAKASRYWSLYYWGQGTQVTVSS,high polyreactivity
12,QVQLVESGGGLVQAGGSLRLSCAASGFIFRDNAMGWYRQSPGKERELVAAISERGGRTYYADSVKGRFTISRDNAKNTVYLQMNSLKPEDTAVYYCADEDIAKFYYWGQGTQVTVSS,high polyreactivity
13,QVQLVESGGGLVQAGGSLRLSCAASGFIFRGNAMGWYRQAPGKERELVAAISRRGGTTYYADSVKGRFTISRDNAKNTVYLQMNSLKPEDTAVYYCAKLVVVPFYYWGQGTQVTVSS,high polyreactivity
14,QVQLVESGGGLVQAGGSLRLSCAASGFIFRGNAMGWYRQAPGKERELVAAISWSGGNTYYADSVKGRFTISRDNAKNTVYLQMNSLKPEDTAVYYCAAGATWSRQGSIRYNYWGQGTQVTVSS,high polyreactivity
15,QVQLVESGGGLVQAGGSLRLSCAASGFIFRGNAMGWYRQATGKERELVAGIRSLGGTTSYADSVKVRFTISRDNAKNTVYLQMNSLKPDDSGVYYCAAGYGADFDYWGQGTQVTVSS,low polyreactivity
16,QVQLVESGGGLVQAGGSLRLSCAASGFIFRGYAMGWYRQAPGKERELVAAISRRGGSTYYADSVKGRFTISRDNAKNTVYLHMNSLKPEDTAVYYCNAETTPQGNVRDGYWGQGTQVTVSS,high polyreactivity
17,QVQLVESGGGLVQAGGSLRLSCAASGFIFRHNAMGWYRQAPGKEREFVAAISISGGSTYYADSVKGRFTISRDNAKNTVDLQMNSLKPEDTAVYYCNARSLGNTYLLYDYWGQGTQVTVSS,low polyreactivity
18,QVQLVESGGGLVQAGGSLRLSCAASGFIFRHNAMVWYRQAPGKERELVAAITKRGGDTYYADSVKGRFTISRDNAKNTVYLQMISLKPEDTAVYYCNVDVRYPKYYYWGQGTQVTVSS,low polyreactivity
19,QVQLVESGGGLVQAGGSLRLSCAASGFIFRKYVMGWYRQAPGKERELVAAITRSGTSTYYADSVKGRFTISRDNAKNTVYLQMNSLKPEDNAVYYCNVGSDGWYYWGQGTQVTVSS,low polyreactivity
20,QVQLVESGGGLVQAGGSLRLSCAASGFIFRLYAMGWYRQAPGKERELVAAISGRGGNTYYADSVKGRFTISRDNAKNTVYLQMNSLKPEDTAVYYCAADRPGTGYSDYDYWGQGTQVTVSS,high polyreactivity
21,QVQLVESGGGLVQAGGSLRLSCAASGFIFRLYAMGWYRQAPGKERELVAAISRGGSTTYADSVKGRFTISRDNAKNTVYLQMNSLKPEDTAVYYCATEGDYVAYLYDYWGQGTQVTVSS,low polyreactivity

# — the nanobody polyreactivity screen of Harvey et al. (2022)
